Measured values from patent US20240060126.

Tests used:
[1] = target: MspA-((Del-L74/G75/D118/L119)D56F/E59R/L88N/D90N/D91N/Q126R/D134R/E139K)8
[2] = target: MspA-((Del-L74/G75/D118/L119)G1A/D56N/E59F/L88N/D90N/D91N/Q126R/D134R/E139K)8

B1: T4 Dda-E94C/C109A/C136A/K199L/A360C (protein)
chain: MTFDDLTEGQKNAFNIVMKAIKEKKHHVTINGPAGTGKTTLTKFIIEALISTGETGIILAAPTHAAKKILSKLSGKEASTIHSILKINPVTYECNVLFEQKEVPDLAKARVLICDEVSMYDRKLFKILLSTIPPWATIIGIGDNKQIRPVDPGENTAYISPFFTHKDFYQCELTEVKRSNAPIIDVATDVRNGKWIYDLVVDGHGVRGFTGDTALRDFMVNYFSIVKSLDDLFENRVMAFTNKSVDKLNSIIRKKIFETDKDFIVGEIIVMQEPLFKTYKIDGKPVSEIIFNNGQLVRIIEAEYTSTFVKARGVPGEYLIRHWDLTVETYGDDEYYREKIKIISSDEELYKFNLFLGKTCETYKNWNKGGKAPWSDFWDAKSQFSKVKALPASTFHKAQGMSVDRAFIYTPCIHYADVELAQQLLYVGVTRGRYDVFYV
Q: Which results are given for B1?
A: slips forward per kilobase [1]: less than 5 slips forward per kilobase; % bases missed in construct X [2]: the lowest % bases missed in construct X; slips forward per kilobase [2]: less than 5 slips forward per kilobase
